From patent publication US20170166643A1 (OSE IMMUNOTHERAPEUTICS, published 2017)
Several values for one entry are separate records, joined by “and”; a condition that tells them apart may be missing. Equal entries are not always repeated.

Biological target: T1, Recombinant human CD28 (R&D Systems) (human, UniProt P10747 19-152)
T1 construct: Coated on microtiter plates at 1 ug/mL; also called recombinant CD28
Experiment: ELISA on immobilized recombinant human CD28, purified Mono28Fc

- EC50: 0.1 µg/mL and 1.16 nM
B1: Mono28Fc, recombinant monovalent antibody derived from the anti-CD28 antibody CD28.3 (heterodimer VH-CH2CH3 + VL-CH2CH3, human IgG1 CH2-CH3) (antibody, V domains shown)
VH: VKLQQSGAELVKPGASVRLSCKASGYTFTEYIIHWIKLRSGQGLEWIGWFYPGSNDIQYNAKFKGKATLTADKSSSTVYMELTGLTSEDSAVYFCARRDDFSGYDALPYWGQGTMVTVSS
VL: DIQMTQSPASLSVSVGETVTITCRTNENIYSNLAWYQQKQGKSPQLLIYAATHLVEGVPSRFSGSGSGTQYSLKITSLQSEDFGNYYCQHFWGTPCTFGGGTKLEIKR
notes: Expressed in COS cells from pSecTag2B with the mouse Ig kappa leader (cleaved on secretion); also called co-transfection with pSec-VH-Fc(CH2-CH3) and pSec-VL-Fc(CH2-CH3)
